The record followed here is patent publication US20110105393A1, “METHODS FOR PROMOTING STEM CELL PROLIFERATION AND SURVIVAL” (priority 2007, published 2011).

One assay relates to Notch receptor. Nature of the assay: Notch receptor cleavage (activation) in NSC cultures. The assay is classed as cell-based, mouse. The settings on record: effect of inhibitor; DAPT 1 μM. On the procedure:
(§1) Cell culture: E13.5 cortical embryonic mouse CNS stem cells were grown as previously described (Johe, et al., Genes Dev 10, 3129-40, 1996). Cells were expanded in serum-free DMEM/F12 medium with N2 supplement and FGF2 (20 ng/ml) for 5 days under 5% oxygen conditions and were re-plated fresh or from frozen stocks at 1,000-10,000 cells per cm^2. FGF2 was included throughout the studies, unless otherwise stated. Adult rat (3-6 months old) or adult mouse (2-4 months old) SVZ NSC cultures were grown in the same medium as the fetal cultures.
(§2) Pharmacological treatments: Unless otherwise stated, the following concentrations were used: Dll4 and Ang-2 (in vitro, 500 ng/ml; in vivo 12.5 μg as a single injection), FGF2 (in vitro, 20 ng/ml), JAK inhibitor (in vitro, 200 nM; in vivo, 250 ng as a single injection), insulin (in vitro, 25 μg/ml; in vivo, 40 μg as a single injection), DAPT (1 μM), Fluorogold (0.5 μg). For the survival assays, compounds were added daily and Notch ligands every 2 days for the duration of the experiment. For the effects of kinase inhibitors on Notch activation, cells were pre-incubated for 1 h prior to Notch activation.
It was previously shown that in NSCs Notch activation leads to rapid phosphorylation of Akt (Androutsellis-Theotokis, A. et al., Nature 442, 823-6, 2006), a mediator of insulin signalling (Cantley, Science 296, 1655-7, 2002). […] Activation of the Notch receptor by addition of insulin or Dll4 was inhibited by DAPT, a γ-secretase inhibitor that blocks Notch cleavage. […] Insulin maintained STAT3-Ser727 phosphorylation levels, and acutely (1-h) induced it following a 16-h insulin withdrawal phase (FIG. 1c).

Another assay concerns insulin/IGF-1 receptors. Nature of the assay: Insulin/IGF-1 receptor activation in NSC cultures. The assay is classed as cell-based, mouse. The settings on record: effect of inhibitor; DAPT 1 μM. As for the experimental part: as §1, §2
It was previously shown that in NSCs Notch activation leads to rapid phosphorylation of Akt (Androutsellis-Theotokis, A. et al., Nature 442, 823-6, 2006), a mediator of insulin signalling (Cantley, Science 296, 1655-7, 2002). […]

The subject of a further assay is mTOR. In words: mTOR phosphorylation in NSC cultures (Western blot). In kind it is cell-based, mouse. The settings on record: NSC cultures, 0.5 μg/ml (FIG. 2a, Example 3). On the procedure:
as §1
(§3) Fetal NSCs in culture express Ang-1, and treatment (2 days) with Dll4 maintained it whereas CNTF reduced it. Ang-2 expression was maintained under these conditions. […] Ang-2 induced mTOR and STAT3-S727 phosphorylation, unlike Ang-1 (FIG. 2a). Ang-1, however, induced Akt phosphorylation.
Three characterized Tie-2 receptor antibodies were used to determine if the Tie-2 receptor was expressed in the immature neural precursor cells found in the SVZ of the adult brain. When ligand is bound, the Tie-2 receptor becomes phosphorylated. An antibody that recognizes the activated receptor (RnD Systems, AF2720) and another antibody that binds to a distinct site (Santa Cruz, sc-324) identified many positive cells in the subventricular zone of the adult rat brain. In regions that were more distant from the ventricle, Tie-2 was expressed predominantly on blood vessels and endothelial cells reacted with antibodies against the activated receptor. Precursor cells that proliferate in vitro can be readily derived from the fetal and adult brain. The homogeneity of these cell populations in attached culture and their potential to generate neurons and glia is supported by clonal analysis. […] This colony number assay measured the survival of precursor cells that could differentiate into neurons and glia (See, Table 1).
A general note: In western blotting, separated proteins are transferred to a membrane and probed.

The next assay concerns NSC cultures. Nature of the assay: Incidence of Tie-2 spikes in NSC cultures. In kind it is cell-based. Particulars: for % of cells with at least one spike: NSC cultures; for spike number: thirty minutes after treatment. On the procedure:
A protrusion of the cell membrane was identified in neuronal stem cells (NSCs) when the Tie-2 receptor is concentrated. This can be visualized using antibodies that bind Tie-2. The protrusion was termed a spike. These spikes appear 30 minutes after treatment with pharmaceutical agents. […] increase spike number thirty minutes after treatment. […] Thus, a novel sub-cellular structure ahs been identified. These structures could regulate the responsiveness of cells to treatments.
Thus, a novel protrusion of the cell membrane in NSCs has been identified where the Tie-2 receptor is concentrated. This can be easily visualized using an antibody against Tie-2 that recognizes a particular epitope. […] Indeed, the spike is devoid of actin filaments or tubulin. The spikes can be detected within thirty minutes of contacting the cultures with an the factors. Thus, the spikes provide a rapid assay for the effect of pharmacologic agents.

A further assay has as its system Akt. Nature of the assay: Akt phosphorylation in NSC cultures. In kind it is cell-based, mouse. Particulars: 0.5 μg/ml (FIG. 2a). On the procedure: as §1, §3
Another assay deals with Ang-1. In words: Ang-1 expression in fetal NSC cultures. In kind it is cell-based, mouse. The settings on record: fetal NSCs in culture, treatment 2 days. As for the experimental part: as §1, §3
For a further assay, the system named is Hes3. In words: Hes3 protein immuno-staining in fetal NSC cultures. The settings on record: 2 day treatment. The assay is classed as cell-based, mouse. As for the experimental part:
as §1
Hes3 mRNA is present in fetal NSC cultures under conditions that support their self-renewal but CNTF-induced differentiation (Bonni, A. et al., Science 278, 477-83, 1997; Rajan & McKay, J Neurosci 18, 3620-9, 1998): downregulates Hes3 message (Androutsellis-Theotokis, A. et al., Nature 442, 823-6, 2006). Knockout studies have shown a role of Hes3 in self-renewal (Hatakeyama, J. et al., Development 131, 5539-50, 2004). It was investigated if Hes3 mediates stem cell functions in vitro to assess its use as a functional NSC marker. Fetal (E13.5) cortical tissue was dissociated and magnetic sorting was used to isolate a cell population that expressed AC133, an established marker of NSCs (Uchida, N. et al., Proc Natl Acad Sci USA 97, 14720-5, 2000). […]

For the molecule `C[C@H](NC(=O)Cc1cc(F)cc(F)c1)C(=O)N[C@H](C(=O)OC(C)(C)C)c1ccccc1` [DAPT, reference compound], the “Activation of the Notch receptor by addition of insulin or Dll4” value with Notch receptor is given as “inhibited”. For the same molecule, in the assay on insulin/IGF-1 receptors, the “Activation of the insulin/IGF-1 receptors by insulin treatment” value is given as “partly blocked”.

B1: Ang-1: human angiopoietin-1 (923-AN) from R&D (protein, UniProt Q15389 16-498, looked up)
Angiopoietin-1: HIGCSNQRRSPENSGRRYNRIQHGQCAYTFILPEHDGNCRESTTDQYNTNALQRDAPHVEPDFSSQKLQHLEHVMENYTQWLQKLENYIVENMKSEMAQIQQNAVQNHTATMLEIGTSLLSQTAEQTRKLTDVETQVLNQTSRLEIQLLENSLSTYKLEKQLLQQTNEILKIHEKNSLLEHKILEMEGKHKEELDTLKEEKENLQGLVTRQTYIIQELEKQLNRATTNNSVLQKQQLELMDTVHNLVNLCTKEGVLLKGGKREEEKPFRDCADVYQAGFNKSGIYTIYINNMPEPKKVFCNMDVNGGGWTVIQHREDGSLDFQRGWKEYKMGFGNPSGEYWLGNEFIFAITSQRQYMLRIELMDWEGNRAYSQYDRFHIGNEKQNYRLYLKGHTGTAGKQSSLILHGADFSTKDADNDNCMCKCALMLTGGWWFDACGPSNLNGMFYTAGQNHGKLNGIKWHYFKGPSYSLRSTTMMIRPLDF
For B1, the mTOR phosphorylation entry with mTOR is “inhibits”. In the assay with NSC cultures, the “% of cells with at least one spike” value was found to be 0.8% and the spike number result was “do not increase”. In the assay on Akt, the Akt phosphorylation entry is “induced”.

B2: CNTF: CNTF (577-NT) from R&D; induces differentiation of NSCs (protein, UniProt P26441 1-200, looked up)
Ciliary neurotrophic factor: MAFTEHSPLTPHRRDLCSRSIWLARKIRSDLTALTESYVKHQGLNKNINLDSADGMPVASTDQWSELTEAERLQENLQAYRTFHVLLARLLEDQQVHFTPTEGDFHQAIHTLLLQVAAFAYQIEELMILLEYKIPRNEADGMPINVGDGGLFEKKLWGLKVLQELSQWTVRSIHDLRFISSHQTGIPARGSHYIANNKKM
For B2, the Ang-1 expression result in the assay with Ang-1 is recorded as “reduced”. Further, in the assay with NSC cultures, the “% of cells with at least one spike” value is 0.8% and the spike number entry is recorded as “do not increase”. In the assay with Hes3, the Hes3 protein expression entry was “lost”.
